Assay results reported in IntAct's records for PubMed 18976727.

B1: Prickle-like protein 1 (Homo sapiens), Q96MT3 (parent)
chain: MPLEMEPKMSKLAFGCQRSSTSDDDSGCALEEYAWVPPGLRPEQIQLYFACLPEEKVPYVNSPGEKHRIKQLLYQLPPHDNEVRYCQSLSEEEKKELQVFSAQRKKEALGRGTIKLLSRAVMHAVCEQCGLKINGGEVAVFASRAGPGVCWHPSCFVCFTCNELLVDLIYFYQDGKIHCGRHHAELLKPRCSACDEIIFADECTEAEGRHWHMKHFCCLECETVLGGQRYIMKDGRPFCCGCFESLYAEYCETCGEHIGVDHAQMTYDGQHWHATEACFSCAQCKASLLGCPFLPKQGQIYCSKTCSLGEDVHASDSSDSAFQSARSRDSRRSVRMGKSSRSADQCRQSLLLSPALNYKFPGLSGNADDTLSRKLDDLSLSRQGTSFASEEFWKGRVEQETPEDPEEWADHEDYMTQLLLKFGDKSLFQPQPNEMDIRASEHWISDNMVKSKTELKQNNQSLASKKYQSDMYWAQSQDGLGDSAYGSHPGPASSRRLQELELDHGASGYNHDETQWYEDSLECLSDLKPEQSVRDSMDSLALSNITGASVDGENKPRPSLYSLQNFEEMETEDCEKMSNMGTLNSSMLHRSAESLKSLSSELCPEKILPEEKPVHLPVLRRSKSQSRPQQVKFSDDVIDNGNYDIEIRQPPMSERTRRRVYNFEERGSRSHHHRRRRSRKSRSDNALNLVTERKYSPKDRLRLYTPDNYEKFIQNKSAREIQAYIQNADLYGQYAHATSDYGLQNPGMNRFLGLYGEDDDSWCSSSSSSSDSEEEGYFLGQPIPQPRPQRFAYYTDDLSSPPSALPTPQFGQRTTKSKKKKGHKGKNCIIS
partner: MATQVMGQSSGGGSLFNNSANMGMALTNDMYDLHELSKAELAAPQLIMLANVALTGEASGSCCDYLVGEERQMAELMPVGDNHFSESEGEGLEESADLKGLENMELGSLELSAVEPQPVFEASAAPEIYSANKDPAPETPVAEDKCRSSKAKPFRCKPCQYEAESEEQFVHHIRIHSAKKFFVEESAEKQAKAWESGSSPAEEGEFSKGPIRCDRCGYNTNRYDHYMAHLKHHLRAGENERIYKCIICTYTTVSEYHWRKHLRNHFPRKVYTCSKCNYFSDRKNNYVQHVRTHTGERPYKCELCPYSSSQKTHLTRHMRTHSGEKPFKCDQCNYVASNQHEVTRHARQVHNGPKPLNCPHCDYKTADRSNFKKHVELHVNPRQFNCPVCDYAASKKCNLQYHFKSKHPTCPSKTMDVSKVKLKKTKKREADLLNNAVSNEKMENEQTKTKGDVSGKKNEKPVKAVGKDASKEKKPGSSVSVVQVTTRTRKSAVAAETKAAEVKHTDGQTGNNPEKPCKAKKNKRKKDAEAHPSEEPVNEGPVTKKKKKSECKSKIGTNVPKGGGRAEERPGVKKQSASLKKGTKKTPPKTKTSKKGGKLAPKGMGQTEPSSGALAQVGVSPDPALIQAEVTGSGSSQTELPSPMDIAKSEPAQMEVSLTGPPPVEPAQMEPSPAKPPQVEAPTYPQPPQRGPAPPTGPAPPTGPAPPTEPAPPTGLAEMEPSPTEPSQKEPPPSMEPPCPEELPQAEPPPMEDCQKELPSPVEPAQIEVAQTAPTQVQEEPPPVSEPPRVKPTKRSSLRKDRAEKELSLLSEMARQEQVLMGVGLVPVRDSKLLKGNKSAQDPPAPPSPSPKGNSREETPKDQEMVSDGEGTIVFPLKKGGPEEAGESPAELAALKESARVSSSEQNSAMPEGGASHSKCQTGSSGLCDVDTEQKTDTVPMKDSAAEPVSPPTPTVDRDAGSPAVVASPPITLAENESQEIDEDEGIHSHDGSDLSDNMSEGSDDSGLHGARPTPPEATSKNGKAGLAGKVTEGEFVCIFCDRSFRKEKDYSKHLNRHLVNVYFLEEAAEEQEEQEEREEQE

Variants of: B1
Conditions: with rest_mouse Rest

effect of a mutation on the interaction | Variant
decreasing interaction | R104Q
